Experimental findings from publication PMC2783927 are described below.

Experiment [1] has as its target IL-17RC extracellular domain, C-terminally biotinylated (UniProt Q8NAC3). In words: SPR. Background: SPR reads the build-up and loss of mass on a sensor chip optically.
Experiment [2] concerns the target IL-17RA extracellular domain, C-terminally biotinylated (human) (UniProt Q96F46). In words: SPR.
The target of experiment [3] is IL-17F homodimer (for binding experiments) (human) (UniProt Q96PD4). As to the kind of experiment: SEC. In general terms: In gel filtration, larger molecules generally elute earlier.
Experiment [4] concerns the target IL-17RC-IL-17A complex, pre-assembled on the SPR chip (UniProt Q8NAC3). As to the kind of experiment: SPR.
For experiment [5], the target named is IL-17RC-IL-17F complex, pre-assembled on the SPR chip (UniProt Q8NAC3). As to the kind of experiment: SPR.
For experiment [6], the target named is IL-17RB-IL-25 complex, pre-assembled on the SPR chip (UniProt Q9NRM6). In words: SPR.
Chain of UniProt Q9NRM6 (Q9NRM6 18-292, chain 1 of 2): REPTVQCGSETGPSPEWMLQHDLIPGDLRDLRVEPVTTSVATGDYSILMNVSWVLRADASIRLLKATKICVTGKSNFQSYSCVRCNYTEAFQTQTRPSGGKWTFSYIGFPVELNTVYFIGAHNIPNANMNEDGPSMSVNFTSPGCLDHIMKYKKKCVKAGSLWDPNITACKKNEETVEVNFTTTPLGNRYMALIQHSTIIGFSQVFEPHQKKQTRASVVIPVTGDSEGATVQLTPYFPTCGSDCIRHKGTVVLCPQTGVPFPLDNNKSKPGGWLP
Chain of UniProt Q9NRM6 (Q9H293 33-177, chain 2 of 2, further chain): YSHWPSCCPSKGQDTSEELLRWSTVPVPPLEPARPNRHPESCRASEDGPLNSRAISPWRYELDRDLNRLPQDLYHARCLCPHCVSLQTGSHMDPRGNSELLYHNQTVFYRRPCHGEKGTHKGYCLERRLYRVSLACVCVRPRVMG
For experiment [7], the target named is T1, IL-17F homodimer (crystallised form: tag cleaved, lysine-methylated) (human), Q96PD4.
T1 chain: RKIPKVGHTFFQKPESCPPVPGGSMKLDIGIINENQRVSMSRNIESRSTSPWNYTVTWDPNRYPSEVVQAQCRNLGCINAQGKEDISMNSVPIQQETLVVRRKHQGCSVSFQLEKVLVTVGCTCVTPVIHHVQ
In words: crystal structure. Conditions: remark: other sources report otherwise.

Experiment [8] concerns the target T1, IL-17F homodimer (crystallised form: …). As to the kind of experiment: SDS-PAGE. The note with it: remark: other sources report otherwise.

As for “IL-17A homodimer (from UniProt Q16552 24-155) (ligand)”, the Kd in experiment [1] worked out at 1.2 nM; in experiment [2] it was 2.8 nM.
For “IL-17F homodimer (for binding experiments) (from UniProt Q96PD4 31-163) (ligand)”, the figures for the Kd in experiment [1] and in experiment [2] were 4.4 nM and 292 nM, respectively.
For “IL-17RA extracellular domain, soluble (without BirA ligase tag) (receptor)”, the stoichiometry N (receptor per IL-17 dimer) in experiment [3] amounted to 1. The molecule further registered a stoichiometry N (receptors per IL-17 dimer) in experiment [3] of 2. Besides, the figures for the Kd in experiment [4], in experiment [5] and in experiment [6] were 162 nM, 23800 nM and 14100 nM, respectively.

B1: IL-17F homodimer (crystallised form: tag cleaved, lysine-methylated), Q96PD4 31-163 (ligand)
chain: RKIPKVGHTFFQKPESCPPVPGGSMKLDIGIINENQRVSMSRNIESRSTSPWNYTVTWDPNRYPSEVVQAQCRNLGCINAQGKEDISMNSVPIQQETLVVRRKHQGCSVSFQLEKVLVTVGCTCVTPVIHHVQ
modifications: here or on the partner: reductive lysine methylation of the complex; reductive lysine methylation of the complex
As for B1, the stoichiometry N in experiment [7] and in experiment [8] was 2 each time.

B2: IL-17RC extracellular domain, soluble (without BirA ligase tag) (receptor)
chain: LERLVGPQDATHCSPVSLEPWGDEERLRVQFLAQQSLSLAPVTAATARTALSGLSGADGRREERGRGKSWVCLSLGGSGNTEPQKKGLSCRLWDSDILCLPGDIVPAPGPVLAPTHLQTELVLRCQKETDCDLCLRVAVHLAVHGHWEEPEDEEKFGGAADSGVEEPRNASLQAQVVLSFQAYPTARCVLLEVQVPAALVQFGQSVGSVVYDCFEAALGSEVRIWSYTQPRYEKELNHTQQLPDCRGLEVWNSIPSCWALPWLNVSADGDNVHLVLNVSEEQHFGLSLYWNQVQGPPKPRWHKNLTGPQIITLNHTDLVPCLCIQVWPLEPDSVRTNICPFREDPRAHQNLWQAARLQLLTLQSWLLDAPCSLPAEAALCWRAPGGDPCQPLVPPLSWENVTVDKVLEFPLLKGHPNLCVQVNSSEKLQLQECLWADSLGPLKDDVLLLETRGPQDNRSLCALEPSGCTSLPSKASTRAARLGEYLLQDLQSGQCLQLWDDDLGALWACPMDKYIHKR
With B2, the Kd in experiment [4] amounted to 8000 nM.

In general, Kd refers to the concentration at which binding is half-saturated. Broadly, the stoichiometry N is a count of units in the complex or per binding partner.
